Measured values published in patent US20190389956A1 (INSTITUTE OF BIOPHYSICS CHINESE ACADEMY OF SCIENCES, published 2019).

B1: mouse anti-human IFNAR1 monoclonal antibody 10C9 (antibody, V domains shown)
VH: QIQLVQSGPELKKPGETVKISCKASGYTFTNYGVNWMKQAPGKGLKWMGWINTYTGEPTYADDFKGRFAFSLETSASTAYLQINNLKNEDTATYFCAREGVYYYGDWAWLAYWGQGTLVTVSA
VL: DIVMTQSQKFISTSVGDRVSVTCKASQNVGTNVAWYQQKPGQSPKTLIYSTSYRYNGVPDRFTGSGSGTDFTLTISNVQSEDLAEYFCQQYNSYYTFGGGTKLEIK
notes: Mouse monoclonal IgG from a hybridoma, detected with anti-mouse IgG; also called antibody secreted by hybridoma cell line 10C9 (CGMCC No. 12543)
B2: mouse anti-human IFNAR1 monoclonal antibody 10C2 (antibody, V domains shown)
VH: QIQLVQSGPELKKPGETVKISCKASGYTFTNYGMNWVKQAPGKGLKWMGWINTYTGEPTYSDDFKGRFAFSLETSASTANLQINNLKDEDAATYFCAREGAIYYGDYVYFGVWGAGTTVTVSS
VL: DIVMTQSQKFMSTSVGDRVSITCKASQNVGTAVAWYQEKPGQSPKLLIYSASNRYTGVPDRFTGSGSGTAFTLTISNMQSEDLADYFCQQYYNYPLTFGAGTKLEVKR
notes: Mouse monoclonal IgG from a hybridoma, detected with anti-mouse IgG; also called antibody secreted by hybridoma cell line 10C2 (CGMCC No. 12542)

How the values were obtained:
[1] = target: T1, human IFNAR1 truncation lacking extracellular SD1, fused with GFP, expressed on HEK293T cells (human, UniProt P17181 28-457); experiment: flow cytometry on transfected HEK293T cells, PE anti-mouse IgG
T1 construct: domain: extracellular and transmembrane domains lacking SD1 (32-126); Made from pEGFP-humanIFNAR1EC by overlap PCR; transiently expressed on HEK293T cells; also called R1-Δ1; RI-Δ1; not shown: C-terminal GFP (with linker) from the pEGFP vector
T1 sequence (looked up): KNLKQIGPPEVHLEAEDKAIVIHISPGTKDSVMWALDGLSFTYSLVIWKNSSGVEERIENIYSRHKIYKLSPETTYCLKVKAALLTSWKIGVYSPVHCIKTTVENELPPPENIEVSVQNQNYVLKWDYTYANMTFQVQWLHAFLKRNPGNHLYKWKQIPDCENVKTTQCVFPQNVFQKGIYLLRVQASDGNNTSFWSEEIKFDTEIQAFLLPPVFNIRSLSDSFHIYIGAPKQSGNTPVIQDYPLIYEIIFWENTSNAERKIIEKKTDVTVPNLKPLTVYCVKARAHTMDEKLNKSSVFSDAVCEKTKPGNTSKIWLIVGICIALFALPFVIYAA

[2] = target: T2, human IFNAR1 extracellular and transmembrane domains fused with GFP, expressed on HEK293T cells … (human, UniProt P17181 28-457); experiment: flow cytometry screening on HEK293T cells expressing human IFNAR1 extracellular domain-GFP
T2 construct: domain: extracellular domains and transmembrane domains; the intracellular domain is replaced by GFP; also called R1-WT; HEK293T cells stably expressing IFNAR1; not shown: C-terminal GFP (with linker) from the pEGFP vector
T2 sequence (looked up): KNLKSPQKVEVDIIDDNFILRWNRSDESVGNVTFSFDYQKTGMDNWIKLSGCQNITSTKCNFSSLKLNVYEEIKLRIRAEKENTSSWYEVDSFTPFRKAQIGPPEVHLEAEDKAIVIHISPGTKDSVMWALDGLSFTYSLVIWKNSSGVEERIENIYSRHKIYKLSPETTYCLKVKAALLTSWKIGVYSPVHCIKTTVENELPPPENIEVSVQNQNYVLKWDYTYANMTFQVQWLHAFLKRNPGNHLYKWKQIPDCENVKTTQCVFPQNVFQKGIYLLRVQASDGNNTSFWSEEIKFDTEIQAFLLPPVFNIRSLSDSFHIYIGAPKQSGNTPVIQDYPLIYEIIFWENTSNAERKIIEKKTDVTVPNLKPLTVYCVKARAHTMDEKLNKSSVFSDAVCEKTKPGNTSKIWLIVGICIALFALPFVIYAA
Description: Hybridoma secreting IFNAR1 antibody can be screened by analyzing GFP and PE signals of cells by flow cytometry. Monoclonal IgG antibodies of each well were screened by a reporter cell line stably expressing the extracellular domain of IFNAR1. Once extensive hybridoma growth occurs, hybridoma cells are usually screened after 10-14 days. Hybridoma cells secreting IFNAR1 antibody are subcloned by limited dilution method and were screened again. If still positive for human IFNAR1, then the monoclonal antibody is subcloned at least twice by limited dilution. Then the stable subclones are cultured in vitro, and a small amount of antibodies are produced in tissue culture medium for characterization.
The day before screening, 100 μL supernatant was aspirated from 96-well cell culture plate into a 96-well U bottom plate. 100 μL fresh 1×HAT RPMI medium was added to the original well for continued culture. HEK293T cells stably expressing IFNAR1 were harvested and were subsequently added to a 96-well U-bottom plate at a density of 10,000 cells/200 μL/well. After centrifugation at 2200 rpm for 3 min, the supernatant was discarded and the cell pellet was collected and re-suspended with 100 μL hybridoma supernatant at 4° C. for 30 min. […] Finally, the re-suspended cells were analyzed using a flow cytometer Guava (Millipore) for cellular GFP and PE signal. […]

Row | Binder | binding result [1] | binding result [2]
1 | B1 | no binding (tested: 5 µg/ml (methods of Example 2)) | binds
2 | B2 | no binding (tested: 5 µg/ml (methods of Example 2)) | binds
